Experimental data published in paper PMC7437997, “Mechanistic insights into Lhr helicase function in DNA repair”.

Biological target: Lhr (archaeal Lhr, Mth1802) (Methanothermobacter thermautotrophicus …, UniProt O27830 1-862)
Assay: EMSA; no ATP; 100 nM Lhr, 10 nM DNA; EMSA: buffer HB (20 mM Tris-HCl pH 7.5, 2 mM DTT, 100 µg/ml BSA, 7% glycerol), room temperature, 10 nM DNA, 100 nM Lhr, +/- ATP and MgCl2, 5% acrylamide TBE gel; smFRET: 1 µM Lhr, RT or 45°C
Conditions: protein: recombinant; tags: none stated (pET22b via NdeI/EcoRI, pEB352; no tag purification); label: ATTO 532 (green); partial fork 1:3 parental 24 bp, 3:4 leading arm 25 bp; S18[1-26] single-stranded; 1 nt 5' overhang on S20

Chain of Lhr (archaeal Lhr, Mth1802) (O27830 whole entry): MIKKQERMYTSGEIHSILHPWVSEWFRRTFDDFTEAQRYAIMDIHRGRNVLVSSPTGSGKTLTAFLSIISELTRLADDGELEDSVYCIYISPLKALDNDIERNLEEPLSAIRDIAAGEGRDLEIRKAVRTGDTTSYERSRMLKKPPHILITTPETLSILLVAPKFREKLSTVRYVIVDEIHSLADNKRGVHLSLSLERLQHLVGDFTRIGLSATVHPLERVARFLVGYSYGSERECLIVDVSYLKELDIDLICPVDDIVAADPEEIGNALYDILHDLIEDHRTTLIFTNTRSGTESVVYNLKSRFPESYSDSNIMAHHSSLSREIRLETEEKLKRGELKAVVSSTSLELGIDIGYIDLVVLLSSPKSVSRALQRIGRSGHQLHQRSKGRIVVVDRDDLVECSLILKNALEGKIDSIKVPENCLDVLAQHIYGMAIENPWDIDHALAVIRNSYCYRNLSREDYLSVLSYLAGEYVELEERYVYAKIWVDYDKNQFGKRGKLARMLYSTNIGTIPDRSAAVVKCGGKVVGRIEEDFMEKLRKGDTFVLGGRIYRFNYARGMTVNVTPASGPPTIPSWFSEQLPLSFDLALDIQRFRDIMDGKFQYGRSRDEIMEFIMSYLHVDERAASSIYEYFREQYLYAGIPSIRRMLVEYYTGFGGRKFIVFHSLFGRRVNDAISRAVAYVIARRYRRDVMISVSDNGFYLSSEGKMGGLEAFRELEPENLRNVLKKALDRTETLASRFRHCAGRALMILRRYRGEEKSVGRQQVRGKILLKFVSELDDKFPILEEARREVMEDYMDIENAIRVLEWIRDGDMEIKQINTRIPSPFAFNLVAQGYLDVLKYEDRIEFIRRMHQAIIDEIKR

B1: partial fork-2 lacking the red lagging strand (dsDNA)
DNA 1: ATCGATAGTCTCTAGACAGTATGTCCTAGCAAGCCAGAATTCGGCAGCGT
DNA 2: GACGCTGCCGAATTCTGGCTTGCTATGTAAATCTTTGCCCACGTTGACCC
DNA 3: GGGTCAACGTGGGCAAAGATTTACA
modifications: 5' biotin on S18
binding result: binds
